# Assay results published in the nanobody polyreactivity screen of Harvey et al. (2022).
# Experiment: yeast display, Sf9 membrane polyspecificity reagent, FACS + sequencing; frameworks hold sequencing errors
# Method in brief: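 Genes from sorted yeast were amplified by colony PCR, read by MiSeq 2 × 250 sequencing and filtered on CDR length. These cells carried a synthetic nanobody library in Saccharomyces cerevisiae BJ5465 and were sorted by FACS into low and high (top ~1%) gates on anti-HA and streptavidin fluorescence. Polyreactivity is labelled according to the gate of origin.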
row,Sequence,polyreactivity (PSR sort gate)
1,QVRLVESGGGLVQAGGSLRLRCAASGSTFYTYAMGRYRQAPGKERELVAAITFIDGSTYYADSVKGRFTISRDNANNTVYLQMNSLKPEDTAVYYCAAASRGWGYPLYYSTDEYWGHGTQVTVSS,low polyreactivity
2,QVQLQESGGGLVQAGGSLRLSCAASGTISQEDWKGWYRQAPGKEREFVAAIGLGSNTNYADSLKGRFTISRDNAKNTVYLQMNSLKQEDTAVYYCAVSVWQYSDHVYRGQGTQVTVSS,low polyreactivity
3,QVQLVESGGGLVQAGGSLRLSCAASGFTFGGYVMGWYRQAPGKERELVAAISSSGGITHYADSVKGRFTISRDNAKNTVYLQMNSLKPEDTAVYYCNALYRQRYYWGQGTQVTVSS,high polyreactivity
4,QDQLVESGGGLVQAGGSLRLSCAASGSIFYVNTMGWYRQAHGKERELVADISSGDSTYYADSVKGRFTISRDNAKNTVYLQMNSLKPEDTAVYYCIADVYSWVSGKEGDYWGQGTQVTVSS,low polyreactivity
5,QVQLVESGGGLVQAGGSLRLSCAASGRTFAIYAMGWYRQAPGKERELVAVINYSGDRTYYADSVKGRFTISRDNAKNTVYLQMNSLKPEDTAVYYCAAVLEYTSDYLSGENDYWGQGTQVTVSS,low polyreactivity
6,QVQLVESGGGLVQAGGSLRLSCAASGFTFRAYAMGWYRQAPGKERELVAAISRSGTSTYYADSVKGRFTISRDNAKYTVYLQMNSLKPEDTAVYYCAARLGPYHYATKMYYWGQGTQVTVSS,high polyreactivity
7,QVQLVESGGGLVQAGGSLRLSCAASGIIFYVYAMGWYRQAPGKERELVAAISSSGGSTNYADSVKGRFTISRDNAKNTVYLQMNSLKPEDTAVYFCAAKWRTRGHTSARGYWGQGTQVTVSS,high polyreactivity
8,QVQLVESGGGLVQAGRSLRLSCAASGSIFGFYAMGCYRQAPGKERELVAASTVSDGTTYYADSVKGRFTISRDNAKNSFFFLMNSVKPEDTVVYYCAGDVFRQHEYYYWGQGTQVTVSS,low polyreactivity
9,QVQLVESGGGLVQAGGRLRLRCAASGSIFYAYDRGWYRQAPGKERELVAAINWSGDSTYYADSVKGRFTISRDNAKNTVDLQMNSLKPEDTALYYCAAVSGSGDSGEYDYWGQGTQVTVSS,low polyreactivity
10,QVQLVESGGGLVQAGGSLRLSCAASGFTFSSYAMGWYRQAPGKERELVAAITQSGGRTYYADSVKGRFTISRDNAKNTVYLQMNSLKPEDTAVYSCAADVTLWYDYWGQGTQVTVSS,low polyreactivity
11,QVQLVESGGGLVQAGGSLRLSCAASGITFYVYAMGWSRQAPGKEREFVAAISTRDGTTYAYSVKGRFTISRDNAKNTVYLQMNSLKPEDTAVYYCAAAYYYDGQQGDFDYWGQGSQVTVSS,low polyreactivity
12,QVQLVESGGGLVQAGGSLRLSCAASGSSFVLYAMGWYRQAPGKERELVAAISLSVGSTYYADSVKGRFTISRDNAKNTVYLQMNSLKPEDTAVYDCNARSSIVSYYWYHYWTREFDYWGQGTQVTVSS,low polyreactivity
13,QVQLVESGGVLVQAGGSLRLSCAASGRTVTVNAMGWYRQAPGKERELVAAITGRGGNTNYADSLKGRFTISRDNAKNTVYLQMNSQKPEDTAVFYCYARYHGRAKHDYWGQGTQVTVSS,high polyreactivity
14,QVQLVESGGGLVQAGGSLRLSCAASGSIFRDYVMGWYRQAPGKERELVAAISGNDGSTYYADSVKGRFTISRDNAKNTVYLQMNSLKPEDTAVYYCNADEASTVPQFYSYLDFDYWGQGTQVTVSS,low polyreactivity
15,QVQLVESGGGLVQAGGCLRLSCAASGFTLRYNAMGWSRQAPGKERELVAAITTGGRTNYADSVKGRFTISRDNAKKTVYLQMNSLKPEDTAVYNCNKVFRSFDYWGQGTQVTVSS,high polyreactivity
16,QVQLVESGGGLVQAGGSLRLSCAASGSTFTVNCMGWYRQAPGKERELVASITWSGGSTYYADSVKGRFTISRDNAKNTVYFQMNSLKPEDTAVYYCAADEKLYITGYDYWGQGTQVTVSS,low polyreactivity
17,QFQLVESGGGLVQAGCSLRLSCAASGGTFGLYAMGWYRQAPGKERELVAANTWSDSSTYYADSVKGRFTISRDNAKNTVYLQMNSLKPEDNAVYYCAADYGDADTWWPSAEYHSGRDYWGQGTQVTVSS,low polyreactivity
18,QVQLVESGGGLVQAGGSLRLSCAASGSTFNRNAMGWYRHAPGKERELVATISTGGVSTYYADSVKGRFTISRDNAKNTVYLQMNSLKPEDTAVYYCAKRTVYLSNLDYWGQGTQVTVSS,low polyreactivity
19,QVQLVESGGGLVHAGGSLRLSCPASGRIFPHYAMGWYRQAPGKEREMVAAISGRGGNTYYADSVKGRFTISRDNAKNTVYLQMNSLKPEDTAVYYCAADVSWRPSWGYDYWGQGTQVTVSS,high polyreactivity
20,QVQLVESGGGLVQAGGSLRLTCAASGRTFKYYAMGWYRQAPGKERELVAAITRSGGNTYYADSVKGRFTISRDNAKNTVYLQMNSLKPEDTAVYYCAKRLGYRYPTYDYWGQGTQVSVSS,high polyreactivity
21,QVQLVESGGGLVQAGGSLRLSCAASGFTFGSYAMGWYRQAPGKERELVAAITYSGSRTYYADSVKGRFTISRDNAKNTVYLQMNSLKPEDTAVYYCAAVTHYGFDYWGQGTQVTVSS,high polyreactivity
22,QVQLVESGGGLVQAGGSLRLSCAASGRTFNTYAMGWYRQAPGKERELVAAISSGGRTYYADSVKGRFTISRDNAKNTVYLQMNSLKPEDTAVYYCAAKPFQYRTVYEYWGQGTQVTVSS,high polyreactivity

row,Sequence,polyreactivity (PSR sort gate)
1,QVQLVESGGGLVQAGGSLRLSCAASGITFGAYTMGWYRQAPGKERELVAAISRTGARTYYADSVKGRFTISRDNAKNTVYLQMNSLKPEDTAVYYCAAYRIGQYDYWGQGTQVTVSS,high polyreactivity
2,QVQLVESGGGLVQAGGSLRLSCAASGSIIYYAMGWYRQAPGKEREFVAAITKSGGSTYYADSVKGRFTFSRDNAKNTVYLQMNSLKPEDTAVYYCAARGTWAGFYYWGQGTQVTLSS,high polyreactivity
3,QVQLVESGGGIVQAGGSLRLSCTASGFTFTYYAMGSYRQAPGKERELVAAISWSGGSTYYADSVKGRFTISRDNAKNTVYLQMNSLKPEDTAVYYCNKVGRAIGPYDYWGQGTQVTVSS,high polyreactivity
4,QVQLVESGGGLVQAGGSLRLSCAASGSIFYYAMGWYRQAPGKERELVAAITWRGGRTYYADSVKGRFTISRDNAKNTVYLQMNSLKPEDTAVYYCNAVAPGKYNHWGQGTQVTVSS,high polyreactivity
5,QVQLVESGGGLVQAGGSLRLSCAASGNIFVAYAMGWYRQAPGKERELVAAITYNGGRTYYADSVKGRFTISRDNAKNTVYLQMNSLKPEDTAVYYCAARGYNPYGRKVGYWGQGTQVTVSS,high polyreactivity
6,QVQLVESGGGLLQAGGRLRLSCAASGSIFAAYTMGWYRQAPWKERELVAAISVSTVSTYYADSVKGRFTISRDNAKITVYLQMNSLKPEDTAVYYCNADPTDSYPQKYEHDSWGQGTQVTVSS,low polyreactivity
7,QVQLVESGGGLVQAGGSLRLTCAASGRNFRAYAMGWYRQAPGKERELVAAISTSGGSTRYADSVKGRFTISRDNAKNTVYLQMNSLKPEDTAVYYCARYTTRTYEYNYWGQGTQVTVSS,high polyreactivity
8,QVPLVESVGGLVQAGGSLRISCAASGSTLRGYAMGWYRKAPGKERELVAAISWRGGSTYYADSVKGRFTISRDNAKNTVYLQMNSLKPEDTAVYYCNALVAGHKYYTVTSKYDYWGQGTQLTVSS,high polyreactivity
9,QVQLVESGGGLDQAGGSLRLSSAASGFIFDGNAMGWYRQAPGKERELVASITKSSGRTYYADSVKGRFTISRDNAKNTVYLQMNSLKPEDTAVYYCNKARRSVQPYGRQYDYWGQGTQVTVSS,high polyreactivity
10,QVQLVESGGGLVQAGGRLRLSCAASGRTFTSNAMGWYRQAPGKERELVAAIDDGGSTNYADSVKGRFTISRDNAKNTVYLQMNSLKPEDTAVYYCNAPITWQYRGFRRRFDYWGQGTQVTVSS,low polyreactivity
11,QVQLVESGGGLVQAGGSLRLSCAASGRTDFNTMGWYRQAPGKERELVAAITSTGRTYYADSVKGRFTISRDNAKNTVYLQMNSLKPEDTAVYFCAAVWRYKGLLLPSYYYWGQGTQVTVSS,high polyreactivity
12,QVQHVESAGGLVQAGGSLRLSCSASGSIFYFYAMGWSRQAPGKERELVATITSSGSTNYADSVKGRFTISRDNAKNTVYLQMNSLKPEDTAVYYCNVDVISLKPYVSSYFAIKYDYWGQGTQVTVSS,low polyreactivity
13,QVQLVESGGGLVQAGGSLRLSCAASGRIFVRYAMGWSRQAPGKEREMVAAISSSGGRTYYADSVKGRFTISRDNAKNTVYLQMNSLNAEDTAVYYCAARWVQYGVRYDYWGQGTQVTVSS,high polyreactivity
14,QVQLVESGGGLVQAGGSLRLSCAASGRIFTWYAMGWYRQAPGKERELVATISTGGSTNYADSVKGRFTISRDNAKNTVYLQMNSLKPEDTAVYYCAAKWPWSPNAFYYWGQGTQVTVSS,high polyreactivity
15,QVQLVESGGGLVQAGGSLRLSCAASGLTFGLNAMGWYRQAPGKERELVAAITWSGGSTYYADSVKGRFTISRDNAKNTVYLQMNSLKPEDTAVYYCATDNWSVNGGYNYWGQGTQVTVSS,low polyreactivity
16,QVQLVESGGGIVQAGGSLRLSCAASGSIFLGYTMGLYRQAPGKERELVAAINSSGGSTYYADSVKGRFTISRDNAKNTVYLQMNSLKPEDTAVYYCADANSILLFDSWGQGTQVTVSS,low polyreactivity
17,QVQLVESGGGLVHAGGSLRLSCAASGSIFFIYAMGGYRPAPGTERELVARISQGGASPYYADSVKGRFTISRDNAKTTVYLQMNSLKPEDTVVYYCAAGYTNTRLRPKGYGYYYWGQGTQVTVSW,high polyreactivity
18,QVQLVESGGGLVQAGGSLRLSCAASGSIFDNAMGWYRQAPGKERELVAAISLSGSRTYYADSVKGRFTISRDNAKNTVYLQMNSLKPEDTAVYYCNTELVYYSTYDYWGQGTQVTVSS,low polyreactivity
19,QVQLVESGGGLVQAGGILRLSCAASGLIFPPNAMGWYRQAPGKERELVASITRSGGSTYYADSVKGRFTISRDNAKNTVYLQMNSLKPEDTAVYYCAAYLDTSRYGVLYDYWGQGTQVTVSS,low polyreactivity
20,QVQLVESGGGLVQAGGSLRLSCAASGSIFQSYAKGWYRQAPGKERELVAAISRGGSTYYADSVKGRFTISRDNAKNTVYLQMNSLKPEDTAVYYCAAGSGGGKYLYYYWGQGTQVTVSS,low polyreactivity
21,QFQLVESCAGLVQAGGSLRLSCADSGRIFRQYAMGWYIPAPGKERELVASITRNGGSTYYADSVKGRFTISRDNAKNTVYLQMNSQKPEDTAVYYCAKDVKGSYAYDSWGQGTQVTVSS,high polyreactivity
